These results are taken from PMC4285798.

Experiment in all cases: FRET or BRET; CFP (donor) and YFP (acceptor) fusions co-expressed from pETDuet-1 in E. coli; late exponential cells washed once with 0.9% NaCl, 150 μl in a 96 well plate, Tecan Infinite M200 Pro; excitation 435 nm, emission 466-610 nm; RCY = ratio of the emission maxima of eCFP (480 nm) and eYFP (525 nm); RCY 1.1–1.3 read as enrichment/interaction, 0.9–1.1 as approximation without interaction, <0.9 as no FRET

Experiment [1] concerns the target DivIVA-YFP (C. glutamicum).
The target in experiment [2] is DivIVAΔM-YFP (C. glutamicum).
Experiment [3] deals with DivIVAI18F-YFP (C. glutamicum).
The target of experiment [4] is DivIVAI18D-YFP (C. glutamicum).
The target in experiment [5] is DivIVAK20R-YFP (C. glutamicum).

In the case of RodAE438G-CFP (natural protein), the RCY (CFP/YFP emission ratio, FRET) in experiment [1] is 1.1.
Same read-out and setting: for ParB-CFP (natural protein) the value was 1.16.
For the substance RodA-CFP (natural protein), the RCY (CFP/YFP emission ratio, FRET) was determined as 1.19 in experiment [2]; 1.27 in experiment [3]; 1.14 in experiment [4]; 1.11 in experiment [5]; 1.15 in experiment [1].
